The record followed here is the DeepSol protein solubility set.

This data set is described as follows: soluble on expression in E. coli; label from the status in PepcDB or PDB records.
In the case of “MNLMLCCTPLQVLIARKIIELHPNEQFFGVMFGGVWDKKRTLYASKLAEVCSDSMNIDTGKDLKGFDFLKLMRQLKNKITHKGFDKVFLANLNSLWLQTYLSHVSFKELYTFDDGSDNIFPHPNLLREPGTFKYKLIKAFIGDKYSVNKLFKKIKKHYTVYPNYKNIVSNIEPISLWDNQIDCEIDGEVSFFIGQPLLNTKEENISLIKKLKDQIPFDYYFPHPAEDYRVDGVNYVESELIFEDYVFKHLSNKKLFIRSSVLLHLIYVILMKSVLLERVFQDGNSVTIHFQTLDRFIRKFLEHHHHHH”, the “soluble on expression in E. coli” value is given as “not soluble”.
Under “MFSKKKDKFMVQLEEMVFNLDRAAIEFGKMDFNTHLDLKAYSDNIKTYESHGDELMHQVISDLNQTFITPIEREDILSLCNAIDDVLDAMEETSAMFEMYSIEYTDEYMAEFVENIQKAVAEMKLAVGLLVDKKLSHMRIHSINIKEFETNCDGILRQSMKHIFNSETDPITLIKIKDIYQSMEEIADKCQAVANNFETIIMKNSLEHHHHHH” stands “soluble”; under “MKNNIRFDLSDYLIHFFRDVNLETGSHIYLPEHCGFNNQHHACFIDAKYLLRLSLRSHKIFSSWSYRNGQRTVYGDSPVVCFTDMPIAAYLETGVRRLERNEKIGLYAIVLPKEQMFNYGARPVIYGLDQHNNARCSQGRNGERILDETALPLIEQYRYVTYVPGKIDWTHEREWRWPYRGDINNFLNHIKEYGIPENIESTPGFDFRSSEISGAGIIVPFAEDIPTVAHDILTLIDRGVIGRNTFKFIIAVESLQSWTQLSEPGALLSCINDNTFEFESFFDLSASKVKNYADSINDYVSELYSKKDFLNDSYAMEFGNAWVWIHDNQSQVVRALLQAGMIKVNKEGRYLLDVNLASVDWPLRRKEAFASHVAGWLKHRFDIEAGRYSVRGKDDYDAIPSYETPLKDQHPFYNHTVNVDW”, “not soluble”.
Under “MGSDKIHHHHHHMDSYKQYIKEALPNLSIHSYKQNEEGWDNVAIIVNDELLFRFPRKQEYAMRIPLEKELCTLLSCSLHEIEVPKYHLFYEKNTDAIPLCSYYTLIHGEPLKTEIVTTLEKQERKALITQLATFLAALHSIPLKSVTALGFPIEKTLTYWKELQAKLNEYVTNSLTSFQKSTLNRLFENFFACLATSKFQNTIIHADFTHHHILFDKQNKTISGVIDFGDAQIGDPAFDFAGLYYDFGHEFTTSVYEQYSTLTSHHDPLLIHRITSFYQYSPLLHNMIYNFETKNELEFLASIEQLKVILQG” stands “not soluble”.
The result for “MSLRVRIAVIGKLDGFIKEGIKHYEKFLRRFCKPEVLEIKRVHRGSIEEIVRKETEDLTNRILPGSFVMVMDKRGEEVSSEEFADFLKDLEMKGKDITILIGGPYGLNEEIFAKAHRVFSLSKMTFTHGMTVLIVLEQIFRAFKIIHGENYHYEGGSHHHHHH” reads “soluble”; that for “SFHGIPASGVMGGAPANKPELYEEVKLYKNAREREKYDNMAELFAVVKTLQALEKAYIKDCVTPNEYTGACSRLLVQYKAAFKQVQGSDVGSIDDFCRKYRLDCPLAMERIKEDRPITIKDDKGNLNRCIADIVSLFITVMDKLRLEIRAMDEIQPDLRELMETMNRMSNMPPDSEAKDKVSLWLTTLSSMSASDELDDSQVRQMLFDLESAYNAFNRFLHSS”, “soluble”.
“MSTSSHTVLLIQTSPRLDSRTWGDYESVTDALDALCKMFEDFLSKKSAAPVTYDVSQVYEFLDKLSDVSMMIFNRETGQYIGRTRAWIKQQVYEMMRGRCQHPEGGEKVIVGY”: the “soluble on expression in E. coli” value is reported as “not soluble”.
The result for “MRVGQHTLQFANPPVIVATASVVGPKEGEGPLGDTFDMVIDDSYFGEETWEKAERKMLEEAVKMVIAKAQLKPQDIDFLLAGDLLNQTISANYAARSLGIPFLGLYGACSTMYEGMALAAMLIDGGFAHHVVAACSSHYDTAERQYRFPTEQGIQRPPTAQWTVTGAGAVLMAPVGNGPRITHATIGRVLDVGIKDPNDMGSAMAPAAVDTIVRHFQDTGRGPIDYDLIITGDLGRVGHEIATKLLGEKKYDVSKNYSDCGILIYDHERQDTHAGGSGCACSAVVFAGHLMGKLNEGRYKRILGVGTGALLSTTATQQGESIPGIGHGVVIEGLEHHHHHH” reads “not soluble”; that for “AIAFQPVTQKRLTNVSVVRMRKGGKRFEIACYPNMVMAYREGHVRDLDEVIQVEDVFENVSKGKLAANADLERCFGTRDRHAVLLQILLHGDLQVSDRERQYQSTRKLHEIASVVAAKTISRETKKPLPVGLIEKALREIHFAVQPNRPAKAQALEVIPLLRAQSGLDLERARLRLRIHVPSQRDAKAVKARLEPLQQGETDGTHSSSRSDSVRMKDGSAAVESESEEWLPGGALLWTVQADPGAFREIEEIVQRETNQQGIVEVASLRVLDDEDESILS”, “soluble”; that for “ASWSHPQFEKSGGGGGLVPRGSKRADAGTASALAASQLPQATMPGKSMVAIAGSSYQGQNGLAIGVSRISDNGKVIIRLSGTTNSQGKTGVAAGVGYQW”, “soluble”.
Under “MSAAEIDEGVFETTATIDNGSFGTRTIRFETGRLALQAAGAVVAYLDDDNMLLSATTASKNPKEHFDFFPLTVDVEERMYAAGRIPGSFFRREGRPSTDAILTCRLIDRPLRPSFVDGLRNEIQIVVTILSLDPGDLYDVLAINAASASTQLGGLPFSGPIGGVRVALIDGTWVGFPTVDQIERAVFDMVVAGRIVEGDVAIMMVEAEATENVVELVEGGAQAPTESVVAAGLEAAKPFIAALCTAQQELADAAGKSGKPTVDFPVFPDYGEDVYYSVSSVATDELAAALTIGGKAERDQRIDEIKTQVVQRLADTYEGREKEVGAALRALTKKLVRQRILTDHFRIDGRGITDIRALSAEVAVVPRAHGSALFERGETQILGVTTLDMIKMAQQIDSLGPETSKRYMHHYNFPPFSTGETGRVGSPKRREIGHGALAERALVPVLPSVEEFPYAIRQVSEALGSNGSTSMGSVCASTLALLNAGVPLKAPVAGIAMGLVSDDIQVEGAVDGVVERRFVTLTDILGAEDAFGDMDFKVAGTKDFVTALQLDTKLDGIPSQVLAGALEQAKDARLTILEVMAEAIDRPDEMSPYAPRVTTIKVPVDKIGEVIGPKGKVINAITEETGAQISIEDDGTVFVGATDGPSAQAAIDKINAIANPQLPTVGERFLGTVVKTTDFGAFVSLLPGRDGLVHISKLGKGKRIAKVEDVVNVGDKLRVEIADIDKRGKISLILVADEDSTAAATDAATVTS” stands “not soluble”; under “MERVASVLSALKPTLEKHQLGSWKPAEVDRLCAMLREYGKQERRDKCGTSCLDGAATALASLPSSSSVPPSLPSGGDDVEDENDADEEAFAGVVSEVDRCLSLVRDFLKRRMPFGAVVEPTLPAGTAERQAPQSSSADIISCKRARSLSGEPSSSAPTSNSVHSGAAVVEAPVYAVDAFLYAEGDIEKLVEAKKLAREYCCRCGSTDLGLVEFITHSFSQDQLVYLSCFLLPHLLDVVVASHEASRPLSIVDVGSRLGIVLWACAFALQRGLLAPAQAATTDAAADDAAPEVNLVGIELDATFVKISQDVARRFFAQRRRHAPKLVSVPQPAAANGVDAKLPDVSSSIQLLQSDCFEGAAASALSESSLVVMHNVFEYFCTTAVEHARCWLKLRRLVHRSGQFLVCSPALEVTLGTFTDEVWLQAWQLENGNDARGASTPLAWLASYVEPFDTADVASDFLTMRTLSCEGCDAGSDGDKHHEDHHGRSRDHHHHSSEDDEGDGEEASEMAEQIQRIYVYCVK”, “not soluble”.
The result for “MAHHHHHHMSKSDLFNDAQVPMRATVLRFGDDVEGASYPEAALTIDDAAVPAEAKVEVYHDGDNSGSAHESVPHHAQDLRHDFTSGILNCHESCAVCLDACLCMYCTASAHHNFLMNDTEGLYLPVCWGLFCVDVGLSAVSSYLPSSLHFHTYFMRSAIRRRYNLHSAGAPVNSNTHGSSSSGCDCTTESMLDLLTVCFCLPCAIAQHQREIMHQGDWCGGVFSNRYSLQTPATVHTI” reads “not soluble”; that for “MQNIHQHNYVISLKTADARRQHIIQEFAKHNIPFQFFDACSIENNLYMDIEKHLPMLLNSKLSNSEKGCLMSHFLLWKKCVLDDIPYMTIFEDDIILSDESNEFISDYSWVNNRFYEQKEILIKFETFLMPVIRKFTKINEYKERAFNQLISRHFGTASYLISKEAAKYLILLYEKLPADELIAVDESIFNVLLNDKNLCVYQLEPAICVQELQFNKENSLLISQIEEDRYKNQKQNKPRKTLKQRIIKVCYNINRIFKKIKKTKLSDEKDINSDIVKFKLEHHHHHH”, “not soluble”.
